From patent US20240287489A1, “CHITINOLYTIC ENZYME-BASED PLANT PROTECTION AGENTS” (GLOBACHEM NV, priority 2021, published 2024)
“Also recorded” adds a separate entry of the source.

B1: Chitinase 5: chitinolytic enzyme from P. orarium, SEQ ID NO: 5, recombinant with PelB signal peptide and 6×His tag (protein, listed as Photobacterium orarium)
chain: MAMGWSQININGVQKWEEAYSLNVDAANEIITIGAADTAGALYASQSLLQLVDGNKVPEVQITDAPRFAYRGFSVDAVRNFRTKDAIIQLLDQMAAFKLNKLHLRLADDEGWRIEIAGLPELTDVGATRCHDPEEKACILPFLGAGPDGSPESNGYYTATDYQDILSHAAALNIEVVPEIDIPGHAHAAIKAMEARYDHYAAQGNMAEANKYLLTDFNDTTQYLSVQMFTDNAINVCMESSYNFVDAVVSGLVSLHQGVQPLKTFHFGGDEIAGAWINSPACQDFIANNTDGVHSVSDLSRYFVERISVITANYGLDMAGWEDGLMHDGQVYPRSQMANNQLWGNAWQNIWEWGVADRAYNLANNDYKVVYNHATHLYFDHPYEPDPNERGYYWAPRFTDTRKTFGFMPDDVFANADFTRAGAPITKAEVVASAGVKKLLKPENVLGLQGSLWAEAVRTEDQFEGMIFPRVLGLAERAWHTATWEANDNAGIALDETGRNADYNHFANLLGQKVLPKLEQAGIAFNLPVPGGVIENGVLQANSTFPGLTIEYSTDQGTSWQSYDHLNPPAVAAGVQLRTVSGQRTSRVTTVNIE
modifications: PelB signal peptide; 6xHis tag; Chitinase 5
B2: Chitinase 2: chitinolytic enzyme from P. orarium, SEQ ID NO: 2, recombinant with PelB signal peptide and 6×His tag (protein, listed as Photobacterium orarium)
chain: MATANYNPDGVYSAGEQVIYQGATYQALRSTENEAPDTYLGDAWQQVNAQNVTSSTTPTYPAYQSSAVYVGGDHVSYNSQIYKAKWWTQGEAPDATPGTGVWEWVSADNNPDPGPGPDPDPTPEPTPANGIIGQNPDGSYIMSKTYLDAREAELTSSPEFAAVLASISTRDNAVVEAVVPGLSTNPDNVKRVEALISEQKWDALFPERNVVYTYSNFLKAVAKFKGFCATYTDERAAQSDAICAKSLAVMFAHFTQETGAHNPHSPYEEWRQGLFFVREAGCSEEASSCGYNSECAASNWQTEQWPCGTNPDGSYVKYFGRGAKQLSYHYNYGPFSDFIFNDVNVLLQDPDRVADSWLNLASAVFFFVYPQPPKPSMLHVIDGTWQPTAADIAEKRVPGFGVTTMIINGGIECTLDTEKPQSVNRIKYYRGHAAALGVAIPADEQLGCAGMKAFKKTGDSTFGLYWENDWSYYPDNPGGSSFACRIESGYQTAHTTLKKGDYAKCIQKYYGVTIE
modifications: PelB signal peptide; 6xHis tag; Chitinase 2

Legend:
Fusarium oxysporum = experiment: Minimum inhibitory concentration (MIC) test on fungal pathogens; assay type: cell-based; design: key: xx = no growth/strong inhibition; x = small inhibition; details: start concentration 100 μg/ml
[1] = Temperature, pH and NaCl optima and temperature stability of recombinant chitinases (reducing end assay); assay type: biochemical; details: for enzyme activity (relative): 20% (w/v) NaCl; for enzyme activity (relative) / Optimum salinity: pH 8, 30° C.; for Optimum pH / Optimum salinity: chitin powder; for Optimum pH: 30° C., pH 4-11; for Optimum salinity: 0-20% w/v NaCl
Description: All enzymes were first characterized regarding their temperature and pH-optima as well as the optimum NaCl content as the enzymes were isolated from a sea-water microorganism. As the future intention is to integrate these novel enzymes in a degradation processes of natural chitin, all parameters were determined using chitin powder as a substrate instead of pre-treated analogs such as colloidal chitin, glycol chitin or artificial fluorogenic substrates. […] (FIG. 5A). Next, enzyme temperature stability was investigated (FIG. 51). […] Enzyme C1 retained a 50% residual activity after 240 min incubation at 60° C., while the activity of the other chitinases dropped below 50% after 15 min and remained on that level.
Given the marine origin of the P. orarium strain, the effect of salt was also evaluated, testing the addition of NaCl to the standard buffer. […] Increasing NaCl amounts up to 20% (w/v) reduced enzyme activity substantially to 10% for C2, 4 and 5, with C1 and C3 showing highest tolerance (65% activity).
For the determination of enzymatic activity of recombinant chitinases, a reducing end assay was carried out [Svein et al., Carbohydr Polym, 2004. 56(1): p. 35-39.]. Fractions containing chitinases were incubated with 5% (w/v) chitin powder extracted from shrimp shells (˜400.000 g/mol; Carl Roth) in MAT buffer for 2 h in an overhead shaker at ambient temperature (standard conditions). Samples were centrifuged at 13000×g for 2 min and 40 μl of the supernatant was mixed with 40 μl 0.5 M NaOH and 40 μL of a reagent containing 1.5 mg/ml 3-Methyl-2-benzothiazolinonhydrazon and 0.75 mg/ml Dithiothreitol. Samples were incubated at 80° C. for 15 min and then thoroughly mixed with 80 μl of 0.5% (w/v) FeNH4(SO4)2)×12H2O, 0.5% (w/v) sulfamic acid and 0.25 M HCl. After cooling down to room temperature, 100 μl of the samples were measured at 620 nm. A calibration curve of N-acetyl-glucosamine was constructed freshly for each measuring cycle. One unit [U] was defined as the amount of enzyme required to release 1 μmol of reducing sugars per hour.
Enzyme samples were incubated at different temperature (10-60° C., 10° C. increment) and pH (4-11, increment 1) using different buffer systems (Acetate, Tris-HCl, MES, total molar concentration 100 mM), as well as NaCl content (0, 1. 2.5, 5, 10 and 20% w/v) to determine optimum reaction conditions. All experiments were carried out at 1.0 ml scale using 2 μM of the respective enzymes and a 5% (wv) suspension of chitin powder extracted from shrimp shells (˜400.000 g/mol; Carl, Roth) in 100 mM MAT buffer. For the determination of the substrate specificity, chitin powder (5% w/v), glycol chitin (10% v/v), colloidal chitin (5% w/v), chitosan [DA 15-25%, medium molecular weight, Sigma-Aldrich] (5% w/v) and microcrystalline cellulose powder (Sigma Aldrich) (5% w/v) were investigated, respectively. The effect of several potential co-factors on activity was elucidated at a concentration of 1 mM. Additionally, the effect of detergents [SDS 0.5% (w/v), Tween-20 and Triton X-100 both at 0.5% (v/v)] and chemicals (Imidazole 100 mM, EDTA 1 mM) on enzymatic activity was assessed. Samples were incubated in a thermomixer for 16 h at 900 rpm. After incubation, samples were analyzed using the enzyme assay. Thermostability was assessed after incubation of recombinant chitinases at 60° C. for different durations followed by the quantification of residual enzyme activity under standard assay conditions.

[2] = TLC analysis of cleavage patterns with chitin standard molecules; assay type: biochemical; details: for hydrolysis products from chitin pentamers / hydrolysis products from chitin trimers: 4 mg/ml, 16 h, TLC; for cleavage mechanism (exo-/endo-chitinase activity): TLC of products from oligomeric or polymeric chitin substrates
Description: monomeric oligomers. Chitosan was degraded to a crude mixture of multiple oligomers ranging from dimers to pentamers and even larger undefined yet water-soluble fragments that migrated slightly from the starting point. Further analysis of the cleavage patterns was carried out using chitin standard molecules of DP2-DP6 and incubating them at 4 mg/ml concentration with the individual enzymes (FIG. 9).
Dimeric chitin molecules were not converted by any of the enzymes. […] All chitinases degraded chitin tetramers to dimers as a single product. […] Chitin hexamers were degraded to dimers and trimers. Although all chitinases are different in their structure and present different glycosyl hydrolase domains hydrolysis products in general were similar.
C2, 4 and 5 yielded similar product patterns when incubated with insoluble substrates. […] The presented data underline that the novel chitinases are all suited for the degradation of powdery chitin without any further harsh chemical pre-treatment.
Hydrolysis products were analyzed using 10×10 cm TLC Silica gel 60 F254 plates (Merck, Darmstadt, Germany) and a mixture of butanol:methanol:25% ammonia:H2O (5:4:2:1) as mobile phase. A total sample volume of 0.5 μl was applied in 0.25 μl spots. Chitin standard sugars (Megazyme, Chicago, USA) (5 mg/ml) were applied to the plate (0.5 μL in 0.25 μL spots) as size standard for the determination of the DP. After separation, the plate was air-dried and the developing solution (200 ml Acetone, 30 ml phosphoric acid (85%), 4 ml aniline, 4 g diphenylamine) was sprayed on the plate followed by spot visualization at 300° C. using a heat gun.

Molecule	growth inhibition of Fusarium oxysporum in the MIC test (Fusarium oxysporum)	enzyme activity (relative) [1] [%]	Optimum pH ([1]; listed as C5)	Optimum salinity [1] [% NaCl]	hydrolysis products from chitin pentamers [2]	hydrolysis products from chitin trimers [2]	cleavage mechanism (exo-/endo-chitinase activity) ([2]; listed as C5)	Optimum pH ([1]; listed as C2)	cleavage mechanism (exo-/endo-chitinase activity) [2]
B1	xx	10	9	0	trimers and dimers	no activity	no exochitinase activity; also recorded: endo-chitinase activity		
B2	xx	10		1	trimers and dimers	no activity		10	endo-chitinase activity
